According to ChEMBL document CHEMBL1132365, “A multisubstrate adduct inhibitor of AICAR transformylase” (J Med Chem, 1999):

Experiments:
[1] = substrate: NC1=NC(=O)C2N=C(CN(C=O)c3ccc(C(=O)N[C@H](CCC(=O)O)C(=O)O)cc3)C=CC2N1; assay: (§1) Substrate specificity towards AICAR formyltransferase
[2] = substrate: NC1=NC(=O)C2N[C@@H](CN(C=O)c3ccc(C(=O)N[C@H](CCC(=O)O)C(=O)O)cc3)CNC2N1; assay: as §1

B1: Bifunctional purine biosynthesis protein ATIC (Homo sapiens), P31939 (protein)
chain: MAPGQLALFSVSDKTGLVEFARNLTALGLNLVASGGTAKALRDAGLAVRDVSELTGFPEMLGGRVKTLHPAVHAGILARNIPEDNADMARLDFNLIRVVACNLYPFVKTVASPGVTVEEAVEQIDIGGVTLLRAAAKNHARVTVVCEPEDYVVVSTEMQSSESKDTSLETRRQLALKAFTHTAQYDEAISDYFRKQYSKGVSQMPLRYGMNPHQTPAQLYTLQPKLPITVLNGAPGFINLCDALNAWQLVKELKEALGIPAAASFKHVSPAGAAVGIPLSEDEAKVCMVYDLYKTLTPISAAYARARGADRMSSFGDFVALSDVCDVPTAKIISREVSDGIIAPGYEEEALTILSKKKNGNYCVLQMDQSYKPDENEVRTLFGLHLSQKRNNGVVDKSLFSNVVTKNKDLPESALRDLIVATIAVKYTQSNSVCYAKNGQVIGIGAGQQSRIHCTRLAGDKANYWWLRHHPQVLSMKFKTGVKRAEISNAIDQYVTGTIGEDEDLIKWKALFEEVPELLTEAEKKEWVEKLTEVSISSDAFFPFRDNVDRAKRSGVAYIAAPSGSAADKVVIEACDELGIILAHTNLRLFHH
B1 showed a Km [1] of 102 µM and a Km [2] of 68 µM.
